Measured values taken from US20220089647A1 (FUJIFILM, published 2022).
Starred links: 1 amine or outer side, 2 acyl side, 3 side chain; linkers in the order of their positions; H or OH if unused. Positions of bridges follow the written chain, without caps; N, C: chain ends. Non-standard residues stand in square brackets, D forms with d. Primed or numbered codes have the meaning given here. No end group written: not given here. Dab(acetyl)″ = 2-amino-4-(acetylamino)butanoic acid, acetyl CH3 carbon bonded to the S of Hcy (S-CH2-C(=O)-NH-), O=C(C[*:3])NCC[C@H](N[*:1])C(=O)[*:2]; Dab(acetyl) = 2-amino-4-acetylamino-butanoic acid residue (N-γ-acetyl-diaminobutyric acid), CC(=O)NCC[C@H](N[*:1])C(=O)[*:2]; Orn(acetyl)″ = N-delta-acetyl-ornithine, acetyl CH3 carbon bonded to the S of Hcy, O=C(C[*:3])NCCC[C@H](N[*:1])C(=O)[*:2]; Lys(acetyl) = N-epsilon-acetyl-lysine, acetyl CH3 carbon bonded to the S of Hcy, O=C(C[*:3])NCCCC[C@H](N[*:1])C(=O)[*:2]; Dap(acetyl) = 2-amino-3-acetylamino-propanoic acid residue, CC(=O)NC[C@H](N[*:1])C(=O)[*:2]; Orn(acetyl) = N-δ-acetyl-ornithine residue, CC(=O)NCCC[C@H](N[*:1])C(=O)[*:2]; COCH2 = acetyl group that carries the bridge; hCys = N[C@@H](CCS)C(=O)O; Dab = NCC[C@H](N)C(=O)O

B1: Cyclic peptide 130 (peptide)
peptide: KKKGXIPRGDTFRXA
modifications: not fully specified; KKKG-(Pen)-IPRGDTFR(Orn(acetyl))A; thioether bond Pen-Orn(acetyl)
B2: Cyclic peptide 58 (peptide)
peptide: KKKG[hCys]IPRGDTF[Dab(acetyl)″]A
modifications: thioether 5-13
B3: Cyclic peptide 134 (peptide)
peptide: KKKGXIPRGDTFRXA
modifications: not fully specified; KKKG(Orn(acetyl))IPRGDTFR-(Pen)-A; thioether bond Orn(acetyl)-Pen
B4: Cyclic peptide 116 (peptide)
peptide: KKKG[hCys]IPRGDTFR[Lys(acetyl)]A
modifications: thioether 5-14
B5: Cyclic peptide 132 (peptide)
peptide: KKKGXIPRGDTFRXA
modifications: not fully specified; KKKG(Dap(acetyl))IPRGDTFR-(Pen)-A; thioether bond Dap(acetyl)-Pen
B6: Cyclic peptide 139 (peptide)
peptide: KKKG[Orn(acetyl)]IPRGDTFRCA
modifications: thioether 5-14
B7: Cyclic peptide 13 (peptide)
peptide: KKKXIPRGDNFX
modifications: not fully specified; KKK-(Hcy)-IPRGDNF(Dab(acetyl)); thioether bond Hcy-Dab(acetyl)
B8: Cyclic peptide 66 (peptide)
peptide: KKK[hCys]VPRGDVF[Dab(acetyl)″]
modifications: thioether 4-12
B9: Cyclic peptide 64 (peptide)
peptide: KKK[hCys]VPRGDTF[Dab(acetyl)″]
modifications: thioether 4-12
B10: Cyclic peptide 63 (peptide)
peptide: KKK[hCys]IPRGDTF[Dab(acetyl)″]
modifications: thioether 4-12
B11: Cyclic peptide 14 (peptide)
peptide: KKK[hCys]VPRGDNF[Dab(acetyl)]
modifications: thioether 4-12
B12: Cyclic peptide 117 (peptide)
peptide: KKKG[Dap(acetyl)]IPRGDTFR[hCys]A
modifications: thioether 5-14
B13: Cyclic peptide 7 (peptide)
peptide: KKKGXIPRGDNFRX
modifications: not fully specified; KKKG-(Hcy)-IPRGDNFR(Dab(acetyl)); thioether bond Hcy-Dab(acetyl)
B14: Cyclic peptide 59 (peptide)
peptide: KKKG[hCys]IPRGDTFR[Dab(acetyl)″]
modifications: thioether 5-14
B15: Cyclic peptide 48 (peptide)
peptide: KKKA[Dap(acetyl)]EPRGDNYR[hCys]D
modifications: thioether 5-14
B16: Cyclic peptide 30 (peptide)
peptide: KKKA[hCys]IPRGDNYR[Dab](COCH2)D
modifications: thioether 5-14
B17: Cyclic peptide 39 (peptide)
peptide: KKKE[hCys]EPRGDNYR[Dab](COCH2)D
modifications: thioether 5-14
B18: Cyclic peptide 34 (peptide)
peptide: KKKA[hCys]EPRGDNFR[Dab](COCH2)D
modifications: thioether 5-14
B19: Cyclic peptide 32 (peptide)
peptide: KKKA[hCys]YPRGDNYR[Dab](COCH2)D
modifications: thioether 5-14
B20: Cyclic peptide 31 (peptide)
peptide: KKKA[hCys]LPRGDNYR[Dab](COCH2)D
modifications: thioether 5-14
B21: Cyclic peptide 67 (peptide)
peptide: KKKG[hCys]AIPRGDTFRA[Dab(acetyl)″]A
modifications: thioether 5-16
B22: Cyclic peptide 128 (peptide)
peptide: KKKGXIPRGDTFRXA
modifications: not fully specified; KKKG-(Pen)-IPRGDTFR(Dap(acetyl))A; thioether bond Pen-Dap(acetyl)
B23: Cyclic peptide 125 (peptide)
peptide: AXVPRGDTFAXA
modifications: not fully specified; A-(Hcy)-VPRGDTFA(Dab(acetyl))A; thioether bond Hcy-Dab(acetyl)
notes: no lysine
B24: Cyclic peptide 119 (peptide)
peptide: KKKGXIPRGDTFRXA
modifications: not fully specified; KKKG(Orn(acetyl))IPRGDTFR-(Hcy)-A; thioether bond Orn(acetyl)-Hcy
B25: Cyclic peptide 118 (peptide)
peptide: KKKG[Dab(acetyl)″]IPRGDTFR[hCys]A
modifications: thioether 5-14
B26: Cyclic peptide 3 (peptide)
peptide: KKK[hCys]IPRGDNFR[Dab](COCH2)A
modifications: thioether 4-13
B27: Cyclic peptide 21 (peptide)
peptide: KKK[hCys]VPRGDNFR[Dab](COCH2)A
modifications: thioether 4-13
B28: Cyclic peptide 24 (peptide)
peptide: KKK[hCys]YPRGDNFR[Dab](COCH2)A
modifications: thioether 4-13
B29: Cyclic peptide 23 (peptide)
peptide: KKK[hCys]EPRGDNFR[Dab](COCH2)A
modifications: thioether 4-13
B30: Cyclic peptide 4 (peptide)
peptide: KKK[hCys]IPRGDNFR[Dab](COCH2)G
modifications: thioether 4-13
B31: Cyclic peptide 5 (peptide)
peptide: KKK[hCys]IPRGDNFR[Dab(acetyl)″]D
modifications: thioether 4-13
B32: Cyclic peptide 57 (peptide)
peptide: KKK[hCys]IPRGDTFR[Dab(acetyl)″]A
modifications: thioether 4-13
B33: Cyclic peptide 114 (peptide)
peptide: KKKG[hCys]IPRGDTFR[Dap(acetyl)]A
modifications: thioether 5-14
B34: Cyclic peptide 126 (peptide)
peptide: AXIPRGDSFAXA
modifications: not fully specified; A-(Hcy)-IPRGDSFA(Dab(acetyl))A; thioether bond Hcy-Dab(acetyl)
notes: no lysine
B35: Cyclic peptide 127 (peptide)
peptide: AXIPRGDSFAXG
modifications: not fully specified; A-(Hcy)-IPRGDSFA(Dab(acetyl))G; thioether bond Hcy-Dab(acetyl)
notes: no lysine
B36: Cyclic peptide 68 (peptide)
peptide: KKKGXXPRGDTFRXA
modifications: not fully specified; KKKG-(Hcy)-(HmY)-PRGDTFR(Dab(acetyl))A; HmY = homotyrosine; thioether bond Hcy-Dab(acetyl)
B37: Cyclic peptide 19 (peptide)
peptide: KKK[hCys]IPRGDNFRAA[Dab](COCH2)A
modifications: thioether 4-15
B38: Cyclic peptide 115 (peptide)
peptide: KKKG[hCys]IPRGDTFR[Orn(acetyl)″]A
modifications: thioether 5-14
B39: Cyclic peptide 113 (peptide)
peptide: KKKA[hCys]VTRGDVFT[Dab(acetyl)″]A
modifications: thioether 5-14
B40: Cyclic peptide 28 (peptide)
peptide: KKKG[hCys]LPRGDSFR[Dab](COCH2)A
modifications: thioether 5-14
B41: Cyclic peptide 81 (peptide)
peptide: KKKAXIPRGDTYRXA
modifications: not fully specified; KKKA-(Hcy)-IPRGDTYR(Dab(acetyl))A; thioether bond Hcy-Dab(acetyl)
B42: Cyclic peptide 79 (peptide)
peptide: KKKAXIPRGDAFRXA
modifications: not fully specified; KKKA-(Hcy)-IPRGDAFR(Dab(acetyl))A; thioether bond Hcy-Dab(acetyl)
B43: Cyclic peptide 76 (peptide)
peptide: KKKAXITRGDTFRXA
modifications: not fully specified; KKKA-(Hcy)-ITRGDTFR(Dab(acetyl))A; thioether bond Hcy-Dab(acetyl)
B44: Cyclic peptide 82 (peptide)
peptide: KKKAXIPRGDTFTXA
modifications: not fully specified; KKKA-(Hcy)-IPRGDTFT(Dab(acetyl))A; thioether bond Hcy-Dab(acetyl)
B45: Cyclic peptide 80 (peptide)
peptide: KKKAXIPRGDTPRXA
modifications: not fully specified; KKKA-(Hcy)-IPRGDTPR(Dab(acetyl))A; thioether bond Hcy-Dab(acetyl)
B46: Cyclic peptide 124 (peptide)
peptide: KKKAXIPRGDSFAXA
modifications: not fully specified; KKKA(Dab(acetyl))IPRGDSFA-(Hcy)-A; thioether bond Dab(acetyl)-Hcy
B47: Cyclic peptide 137 (peptide)
peptide: KKKAXIPRGDSFAXA
modifications: not fully specified; KKKA(Dab(acetyl))IPRGDSFA-(Pen)-A; thioether bond Dab(acetyl)-Pen
B48: Cyclic peptide 72 (peptide)
peptide: KKKGXIPRGDSFRXA
modifications: not fully specified; KKKG-(Hcy)-IPRGDSFR(Dab(acetyl))A; thioether bond Hcy-Dab(acetyl)
B49: Cyclic peptide 10 (peptide)
peptide: KKK[hCys]IPRGDNF[Dab(acetyl)″]A
modifications: thioether 4-12
B50: Cyclic peptide 12 (peptide)
peptide: KKKXIPRGDNFRX
modifications: not fully specified; KKK(Dap(acetyl))IPRGDNFR-(Hcy); thioether bond Dap(acetyl)-Hcy

target: T1, human integrin αvβ5 (human, UniProt P06756 31-992; P18084 24-719, limits assumed); experiment: SPR, Biacore 3000, peptide immobilised; A = KD 50 nM or less
T1 construct: Heterodimer flowed as analyte at 30, 100, 300 and 1,000 nM in HEPES buffer with 5 mM MgCl2
Protocol: (§1) However, only for the cyclic peptides 125, 126, and 127, in which the number of lysine residues having an amino group as the immobilizing functional group was zero, the amount of the sample solution to be supplied to the sensor chip was set to 500 μL instead of 20 μL. Further, 70 μL of the mixed aqueous solution of 0.2 M EDC and 0.04 M NHS was added to another flow channel of the same sensor chip without immobilizing the sample, and then blocking treatment and washing treatment were carried out. Hereinafter, the obtained immobilization-treated sensor chip is referred to as an “immobilization-treated sensor chip A”.
(§2) After adding human integrin αvβ5 for 10 minutes at 25° C., which was diluted to 30 nM using a HEPES buffer solution to which magnesium chloride was added to 5 mM, in each flow channel of the immobilization-treated sensor chip A prepared in (1) above, the same HEPES buffer solution (containing 5 mM magnesium chloride) was allowed to flow as a running buffer for 30 minutes, and measurement was carried out with Biacore 3000. Then, a regeneration treatment of removing human integrin αvβ5 was carried out by allowing a 0.5 M EDTA aqueous solution to flow through each flow channel for 10 minutes. Further, the above-described measurement process consisting of adding integrin for 10 minutes, allowing a running buffer to flow for 30 minutes, carrying out measurement with Biacore 3000, and carrying out regeneration treatment with 0.5 M EDTA aqueous solution was carried out in the same manner for 100 nM human integrin αvβ5, 300 nM human integrin αvβ5, and 1,000 nM human integrin αvβ5. Dissociation constant between the cyclic peptide and human integrin αvβ5 was calculated from the difference between the value measured by Biacore 3000 in the flow channel immobilized with the cyclic peptide and the value measured by Biacore 3000 in the flow channel unimmobilized with the cyclic peptide, in a case where each concentration of human integrin αvβ5 was allowed to flow, and the integrin binding property was evaluated according to the following evaluation standards. It is preferable that the evaluation result satisfies the evaluation standard A, B, or C.

T1 sequence (P06756 31-992 limits assumed, chain 1 of 2): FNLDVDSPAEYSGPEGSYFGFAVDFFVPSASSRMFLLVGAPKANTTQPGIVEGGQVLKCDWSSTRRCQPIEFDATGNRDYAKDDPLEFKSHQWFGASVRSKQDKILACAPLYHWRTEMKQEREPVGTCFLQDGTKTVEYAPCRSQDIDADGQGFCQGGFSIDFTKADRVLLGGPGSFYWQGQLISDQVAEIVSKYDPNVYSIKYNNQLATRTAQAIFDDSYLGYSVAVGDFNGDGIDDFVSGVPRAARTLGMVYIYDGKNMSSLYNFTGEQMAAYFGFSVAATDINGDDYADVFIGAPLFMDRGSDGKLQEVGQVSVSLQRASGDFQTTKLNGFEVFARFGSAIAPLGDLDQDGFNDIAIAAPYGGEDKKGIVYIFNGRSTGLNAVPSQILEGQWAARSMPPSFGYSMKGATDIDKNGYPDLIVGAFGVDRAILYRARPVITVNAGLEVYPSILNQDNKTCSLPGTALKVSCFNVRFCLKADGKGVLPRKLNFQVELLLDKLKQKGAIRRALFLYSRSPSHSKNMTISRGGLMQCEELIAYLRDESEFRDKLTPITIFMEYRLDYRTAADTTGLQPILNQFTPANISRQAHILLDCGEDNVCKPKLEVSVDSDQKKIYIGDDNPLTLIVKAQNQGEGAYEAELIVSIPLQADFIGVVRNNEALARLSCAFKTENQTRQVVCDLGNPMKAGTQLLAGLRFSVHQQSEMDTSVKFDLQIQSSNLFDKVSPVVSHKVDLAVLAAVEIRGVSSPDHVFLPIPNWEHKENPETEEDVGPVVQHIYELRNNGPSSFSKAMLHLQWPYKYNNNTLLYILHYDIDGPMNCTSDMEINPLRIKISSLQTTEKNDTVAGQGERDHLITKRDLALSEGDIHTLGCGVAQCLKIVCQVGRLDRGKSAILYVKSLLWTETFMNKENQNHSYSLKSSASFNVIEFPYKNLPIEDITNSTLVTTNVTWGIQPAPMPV
T1 sequence (P18084 24-719 limits assumed, chain 2 of 2): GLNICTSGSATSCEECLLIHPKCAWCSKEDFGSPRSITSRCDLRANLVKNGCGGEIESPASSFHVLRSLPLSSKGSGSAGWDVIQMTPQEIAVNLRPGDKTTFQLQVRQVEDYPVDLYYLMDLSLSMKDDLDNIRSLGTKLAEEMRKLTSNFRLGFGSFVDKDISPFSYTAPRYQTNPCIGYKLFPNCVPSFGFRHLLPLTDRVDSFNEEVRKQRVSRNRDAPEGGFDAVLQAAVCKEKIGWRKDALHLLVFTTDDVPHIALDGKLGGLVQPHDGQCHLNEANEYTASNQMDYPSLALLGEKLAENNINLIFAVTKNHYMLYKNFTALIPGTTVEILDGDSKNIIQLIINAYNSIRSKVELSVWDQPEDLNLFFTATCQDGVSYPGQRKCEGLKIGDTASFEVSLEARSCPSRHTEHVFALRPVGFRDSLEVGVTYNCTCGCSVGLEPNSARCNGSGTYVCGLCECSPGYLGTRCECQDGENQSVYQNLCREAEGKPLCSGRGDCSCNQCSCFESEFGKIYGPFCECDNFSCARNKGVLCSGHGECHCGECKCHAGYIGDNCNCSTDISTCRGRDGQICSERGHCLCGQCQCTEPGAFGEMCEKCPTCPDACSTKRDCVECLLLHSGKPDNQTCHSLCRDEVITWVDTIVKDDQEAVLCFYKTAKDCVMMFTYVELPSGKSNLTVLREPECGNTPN

| dissociation constant [nM] | dissociation constant (KD) [nM] | Binder |
| --- | --- | --- |
| ≤ 50 | – | B1 |
| – | ≤ 50 | B2 |
| ≤ 50 | – | B3 |
| ≤ 50 | – | B4 |
| ≤ 50 | – | B5 |
| ≤ 50 | – | B6 |
| – | ≤ 50 | B7 |
| ≤ 50 | – | B8 |
| ≤ 50 | – | B9 |
| ≤ 50 | – | B10 |
| – | ≤ 50 | B11 |
| ≤ 50 | – | B12 |
| – | ≤ 50 | B13 |
| – | ≤ 50 | B14 |
| – | ≤ 50 | B15 |
| – | ≤ 50 | B16 |
| – | ≤ 50 | B17 |
| – | ≤ 50 | B18 |
| – | ≤ 50 | B19 |

| dissociation constant [nM] | dissociation constant (KD) [nM] | Binder |
| --- | --- | --- |
| – | ≤ 50 | B20 |
| ≤ 50 | – | B21 |
| ≤ 50 | – | B22 |
| ≤ 50 | – | B23 |
| ≤ 50 | – | B24 |
| ≤ 50 | – | B25 |
| – | ≤ 50 | B26 |
| – | ≤ 50 | B27 |
| – | ≤ 50 | B28 |
| – | ≤ 50 | B29 |
| – | ≤ 50 | B30 |
| – | ≤ 50 | B31 |
| – | ≤ 50 | B32 |
| ≤ 50 | – | B33 |
| ≤ 50 | – | B34 |
| ≤ 50 | – | B35 |
| ≤ 50 | – | B36 |
| – | ≤ 50 | B37 |
| ≤ 50 | – | B38 |

target: T1, human integrin αvβ5; experiment: SPR, Biacore 3000, peptide immobilised; B = KD more than 50 nM and 100 nM or less
Protocol: as §1, §2

| dissociation constant [nM] | dissociation constant (KD) [nM] | Binder |
| --- | --- | --- |
| 50 to 100 | – | B39 |
| – | 50 to 100 | B40 |
| 50 to 100 | – | B41 |
| 50 to 100 | – | B42 |
| 50 to 100 | – | B43 |
| 50 to 100 | – | B44 |
| 50 to 100 | – | B45 |
| 50 to 100 | – | B46 |
| 50 to 100 | – | B47 |
| 50 to 100 | – | B48 |
| – | 50 to 100 | B49 |
| – | 50 to 100 | B50 |
